{"source": "paper PMC9820267", "molecular_target": "PSD-95 (DLG4) (UniProt Q62108)", "test": "GST pull-down from cotransfected COS7 lysate", "conditions": "reference: wild type (treatment condition of comparison not stated); sites T585,T612", "data": [{"substance": "PSD-93 (DLG2) PDZ3-SH3, 390-620 (from UniProt Q91XM9) T585A/T612A", "values": [{"measurement": "binding against the reference", "result": "weaker"}]}]}
